Substrate in the series: CC(=O)Oc1ccc2ccccc2c1
Put plainly: esterase activity assay. In kind it is biochemical, Geobacillus stearothermophilus. The note with it: 2-naphthyl acetate 1-20 mM in isopropanol, citrate phosphate buffer pH 7.

Residue numbers refer to the chain shown, from its start. In names and notes the source's numbering stands.

B1: Axe2 (Geobacillus stearothermophilus) (protein)
chain: MKIGSGEKLLFIGDSITDCGRARPEGEGSFGALGTGYVAYVVGLLQAVYPELGIRVVNKGISGNTVRDLKARWEEDVIAQKPDWVSIMIGINDVWRQYDLPFMKEKHVYLDEYEATLRSLVLETKPLVKGIILMTPFYIEGNEQDPMRRTMDQYGRVVKQIAEETNSLFVDTQAAFNEVLKTLYPAALAWDRVHPSVAGHMILARAFLREIGFEWVRSR
Consider B1, for which the Km (as a rule, the concentration of substrate that gives half-maximal velocity) was 300 µM and the catalytic constant (kcat) (commonly the maximal rate divided by the concentration of active sites) was 720 s⁻¹.

B2: Axe2 (Geobacillus stearothermophilus; W190I) (protein)
chain: B1 chain with W190I
Consider B2, for which the Michaelis-Menten constant (Km) stood at 700 µM and the kcat worked out at 290 s⁻¹.

B3: Axe2 (Geobacillus stearothermophilus; Y184N) (protein)
chain: B1 chain with Y184N
For B3, the Michaelis-Menten constant (Km) amounted to 1300 µM and the catalytic constant (kcat) is 8.0x10^0 sec-1.

B4: Axe2 (Geobacillus stearothermophilus; R55E) (protein)
chain: B1 chain with R55E
On to B4, for which the Km was 500 µM and the catalytic constant (kcat) was determined as 1000 s⁻¹.

B5: Axe2 (Geobacillus stearothermophilus; W190P/Y184F) (protein)
chain: B1 chain with Y184F, W190P
For the protein B5, the Km stood at 3000 µM and the kcat amounted to 44 s⁻¹.

B6: Axe2 (Geobacillus stearothermophilus; Y184F) (protein)
chain: B1 chain with Y184F
Regarding B6, the Km turned out to be 4600 µM and the kcat was found to be 36 s⁻¹.

B7: Axe2 (Geobacillus stearothermophilus; R55A) (protein)
chain: B1 chain with R55A
B7: the Km turned out to be 600 µM and the kcat worked out at 1000 s⁻¹.

B8: Axe2 (Geobacillus stearothermophilus; R205A/W215A/Y184F) (protein)
chain: B1 chain with Y184F, R205A, W215A
For the protein B8, the Michaelis-Menten constant (Km) was determined as 6700 µM and the catalytic constant (kcat) worked out at 42 s⁻¹.

(Values after article doi:10.1101/466904v1.)
